Data: patent publication US20260152553A1 (LYELL IMMUNOPHARMA, published 2026)

B1: CD19/CD20 bispecific CAR (Leu16 scFv-(G4S)4-FMC63 scFv-IgG4 hinge-CD28 TM-4-1BB-CD3 zeta) (other)
chain: DIVLTQSPAILSASPGEKVTMTCRASSSVNYMDWYQKKPGSSPKPWIYATSNLASGVPARFSGSGSGTSYSLTISRVEAEDAATYYCQQWSFNPPTFGGGTKLEIKGSTSGGGSGGGSGGGGSSEVQLQQSGAELVKPGASVKMSCKASGYTFTSYNMHWVKQTPGQGLEWIGAIYPGNGDTSYNQKFKGKATLTADKSSSTAYMQLSSLTSEDSADYYCARSNYYGSSYWFFDVWGAGTTVTVSSGGGGSGGGGSGGGGSGGGGSEVKLQESGPGLVAPSQSLSVTCTVSGVSLPDYGVSWIRQPPRKGLEWLGVIWGSETTYYNSALKSRLTIIKDNSKSQVFLKMNSLQTDDTAIYYCAKHYYYGGSYAMDYWGQGTSVTVSSGSTSGSGKPGSGEGSTKGDIQMTQTTSSLSASLGDRVTISCRASQDISKYLNWYQQKPDGTVKLLIYHTSRLHSGVPSRFSGSGSGTDYSLTISNLEQEDIATYFCQQGNTLPYTFGGGTKLEITESKYGPPCPPCPMFWVLVVVGGVLACYSLLVTVAFIIFWVKRGRKKLLYIFKQPFMRPVQTTQEEDGCSCRFPEEEEGGCELRVKFSRSADAPAYQQGQNQLYNELNLGRREEYDVLDKRRGRDPEMGGKPRRKNPQEGLYNELQKDKMAEAYSEIGMKGERRRGKGHDGLYQGLSTATKDTYDALHMQALPPR
B2: CD20 Protein-Biotin (Acros) (other, UniProt P11836 1-297, looked up)
chain: MTTPRNSVNGTFPAEPMKGPIAMQSGPKPLFRRMSSLVGPTQSFFMRESKTLGAVQIMNGLFHIALGGLLMIPAGIYAPICVTVWYPLWGGIMYIISGSLLAATEKNSRKCLVKGKMIMNSLSLFAAISGMILSIMDILNIKISHFLKMESLNFIRAHTPYINIYNCEPANPSEKNSPSTQYCYSIQSLFLGILSVMLIFAFFQELVIAGIVENEWKRTCSRPKSNIVLLSAEEKKEQTIEIKEEVVGLTETSSQPKNEEDIEIIPIQEEEEEETETNFPEPPQDQESSPIENDSSP
modifications: biotin (site not stated)
notes: Bought detection reagent; construct not described

Tests used:
CD19 = biological target: T1, CD19 (human, UniProt P15391 20-556); assay: cell-based or functional assay
T1 sequence (looked up): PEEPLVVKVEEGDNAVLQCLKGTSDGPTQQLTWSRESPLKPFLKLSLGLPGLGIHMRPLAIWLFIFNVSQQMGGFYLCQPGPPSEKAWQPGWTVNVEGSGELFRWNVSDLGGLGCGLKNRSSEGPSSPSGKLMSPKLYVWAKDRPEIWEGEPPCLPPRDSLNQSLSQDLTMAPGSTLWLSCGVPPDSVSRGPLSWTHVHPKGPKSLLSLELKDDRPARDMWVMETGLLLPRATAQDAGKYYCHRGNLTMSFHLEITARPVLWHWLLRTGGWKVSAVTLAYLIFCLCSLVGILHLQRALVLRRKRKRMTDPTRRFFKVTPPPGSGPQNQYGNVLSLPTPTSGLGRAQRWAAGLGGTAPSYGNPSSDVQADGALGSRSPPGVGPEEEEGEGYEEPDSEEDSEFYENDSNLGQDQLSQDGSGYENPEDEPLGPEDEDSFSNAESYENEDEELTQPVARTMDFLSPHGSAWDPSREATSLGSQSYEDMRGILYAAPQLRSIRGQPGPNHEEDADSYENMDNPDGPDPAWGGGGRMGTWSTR

[1] = biological target: B1; assay: flow cytometry, staining of T cells (donor 1917) transduced with CD19/20 CAR lentiviral vector
Description: Direct Detection of CAR+ cells by Flow Cytometry. Direct measurement was used to detect expression of CD 19/20 CAR. Because quantification of a tEGFR protein may not provide an accurate measurement of surface CAR expression, tEGFR was removed from the Lentiviral vector as described herein, and instead utilized antibodies which bound to the scFv domains of the CD19/20 CAR protein to report surface CAR expression.

| Binder | IFN-γ and IL-2 production, 1:1 effector:target cell ratio or greater, 24 hours, target cells lacking CD20 (CD19) | % Positive Cells [1] [%] |
| --- | --- | --- |
| B1 | > 1000 | – |
| B2 | – | 68.1 |
